{"source": "paper PMC6345952", "about": "“Novel pseudo-aspartic peptidase from the midgut of the tick Rhipicephalus microplus” (Scientific Reports, 2019)", "binders": {"B1": {"name": "bovine hemoglobin (complex)", "chain 1": "not shown", "chain 2": "not shown", "notes": "hemoglobin alpha chain, bovine; hemoglobin beta chain, bovine; the heme groups are not written"}}, "target": "T1, Rhipicephalus microplus pseudo-aspartic peptidase wild type (Rhipicephalus microplus, UniProt A0A411AQW7 21-361)", "T1 construct": "RmPAP, pseudo-aspartic peptidase of Rhipicephalus microplus (GenBank MH427522); mature RmPAP (R21-K361) without the putative signal peptide M1-A20; lacks the second catalytic Asp (Pro242); Cloned into pET14b with an N-terminal His tag; the primers that fix the construct's limits are in Sup; also called RmPAPWT; RmPAP", "T1 sequence": "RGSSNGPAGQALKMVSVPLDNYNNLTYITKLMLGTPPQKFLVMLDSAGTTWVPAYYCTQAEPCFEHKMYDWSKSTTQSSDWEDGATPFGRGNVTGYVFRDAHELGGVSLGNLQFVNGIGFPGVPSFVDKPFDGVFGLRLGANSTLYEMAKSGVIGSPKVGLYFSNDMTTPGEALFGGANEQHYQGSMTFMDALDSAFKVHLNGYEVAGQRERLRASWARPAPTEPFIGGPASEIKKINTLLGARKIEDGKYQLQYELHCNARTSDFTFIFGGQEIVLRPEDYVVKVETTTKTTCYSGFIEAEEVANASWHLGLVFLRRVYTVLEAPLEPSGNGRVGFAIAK", "test": "SPR; Biacore T-200; bovine hemoglobin immobilised on a CM5 chip (FC 2) in acetate buffer pH 5.5, BSA on FC 1 as reference; increasing concentrations of RmPAPWT injected in 10 mM phosphate-citrate buffer, pH 4, 0.15 M NaCl, 20 uL/min; steady-state response (FC2 - FC1) fitted", "conditions": "both partners purified"}
{"binder": "B1", "values": [{"measurement": "Kd", "result": 33.5, "unit": "nM"}]}
